In patent publication US20130115170A1:
Where two headings read alike, the source gives them in different places.

Legend:
[1] = biological target: T1, cholera toxin B subunit (Vibrio cholerae), P01556; experiment: solid-phase ELISA, competition: peptide inhibits CTB binding to GM1
T1 chain: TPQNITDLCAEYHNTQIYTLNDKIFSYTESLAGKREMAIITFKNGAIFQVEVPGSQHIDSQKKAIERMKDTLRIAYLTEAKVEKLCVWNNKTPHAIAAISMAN

[2] = biological target: T1, cholera toxin B subunit (Vibrio …); experiment: solid-phase ELISA, inhibition of CTB binding to GM1, peptide at its IC50 for GM1
[3] = biological target: T1, cholera toxin B subunit (Vibrio …); experiment: solid-phase ELISA, inhibition of CTB binding to Lipid A, peptide at 100 pmol/mL
[4] = biological target: T1, cholera toxin B subunit (Vibrio …); experiment: solid-phase ELISA, inhibition of CTB binding to F-GM1, peptide at 100 pmol/mL
[5] = biological target: T1, cholera toxin B subunit (Vibrio …)
[6] = biological target: T1, cholera toxin B subunit (Vibrio …); experiment: solid-phase ELISA, inhibition of CTB binding to LOSGM1, peptide at 100 pmol/mL
[7] = biological target: T1, cholera toxin B subunit (Vibrio …); experiment: solid-phase ELISA, inhibition of CTB binding to GD1b, peptide at 100 pmol/mL

With QINTAKWWKTHF (modifications not checked) [PGM1-5] the IC50 [1] was 34.4 nM and the inhibition percent [2] was 50%.

Work on FPAWFTKLYPRT (modifications not checked) [PGM1-4] yielded an IC50 [1] of 77.4 nM and an inhibition percent [2] of 50%.

For DASKALRSSGMP (modifications not checked) [PGM1-6], the inhibition percent [3] was -0%, the inhibition percent [4] was -0% and the inhibition percent [5] was -0%. The inhibition percent [6] was -0% and the inhibition percent [7] was -0%.

VSWKTWFPNLAV (modifications not checked) [PGM1-1] gave an IC50 [1] of 38 nM and an inhibition percent [2] of 50%.

IPQVWRDWFKLP (modifications not checked) [PGM1-3] was tested, and the IC50 [1] was 9.6 nM and the inhibition percent [2] was 50%.

YSPFHKWFPSMH (modifications not checked) [PGM1-2] gave an IC50 [1] of 46.1 nM and an inhibition percent [2] of 50%.
